Test results: IntAct's records for PubMed 19675567

B1: ATPase GET3 (Saccharomyces cerevisiae), Q12154 (parent)
chain: MDLTVEPNLHSLITSTTHKWIFVGGKGGVGKTTSSCSIAIQMALSQPNKQFLLISTDPAHNLSDAFGEKFGKDARKVTGMNNLSCMEIDPSAALKDMNDMAVSRANNNGSDGQGDDLGSLLQGGALADLTGSIPGIDEALSFMEVMKHIKRQEQGEGETFDTVIFDTAPTGHTLRFLQLPNTLSKLLEKFGEITNKLGPMLNSFMGAGNVDISGKLNELKANVETIRQQFTDPDLTTFVCVCISEFLSLYETERLIQELISYDMDVNSIIVNQLLFAENDQEHNCKRCQARWKMQKKYLDQIDELYEDFHVVKMPLCAGEIRGLNNLTKFSQFLNKEYNPITDGKVIYELEDKE

Variants of: B1
Conditions: with sc61b_human SEC61B

| effect of a mutation on the interaction | Variant |
| --- | --- |
| decreasing interaction | C285S;C288S |
